# Values of other authors in PMC7077193.
# pKd: −log10 of the molar value.
# Target: eIF4E (Lactuca sativa)
substance,measurement,value
VPg (from UniProt P31999),pKd,6.52
